Experimental data reported in the Human Domainome abundance scans (Beltran et al. 2025).
± gives the uncertainty stated by the source.

B1: POU domain, class 4, transcription factor 1, residues 266 to 347; numbered along this chain, Q01851 (parent)
chain: RELEAFAERFKQRRIKLGVTQADVGSALANLKIPGVGSLSQSTICRFESLTLSHNNMIALKPILQAWLEEAEGAQREKMNKP

Variants of: B1
Assay: abundance fitness (aPCA) (normalised: wild type 0, dead -1); higher = more abundant; growth selection in yeast, the domain comes from the species named
Details: Homo sapiens

Variant	abundance fitness
RELEAFAERFKQRRIKLGVTQADVGSALANLKIPGVMSLSQSTICRFESLTLSHNNMIALKPILQAWLEEAEGAQREKMNKP [G37M]	-0.134 ± 0.037
RELEAFAERFKQRRIKLGVTQADVGSALANLKIPGVYSLSQSTICRFESLTLSHNNMIALKPILQAWLEEAEGAQREKMNKP [G37Y]	-0.054 ± 0.053
RELEAFAERFKQRRIKLGVTQADVGSALANLKIPGVESLSQSTICRFESLTLSHNNMIALKPILQAWLEEAEGAQREKMNKP [G37E]	0.015 ± 0.032
RELEAFAERFKGRRIKLGVTQADVGSALANLKIPGVGSLSQSTICRFESLTLSHNNMIALKPILQAWLEEAEGAQREKMNKP [Q12G]	-0.205 ± 0.029
RELEAFAERFKQRRIKLGVTQADVGSALANLKIPGVGSLSQSTICRFESLTLSHNNMIALKPIVQAWLEEAEGAQREKMNKP [L64V]	-0.336 ± 0.059
RELEAFAEQFKQRRIKLGVTQADVGSALANLKIPGVGSLSQSTICRFESLTLSHNNMIALKPILQAWLEEAEGAQREKMNKP [R9Q]	-0.043 ± 0.1
RELEAFAERFKQRRIKLGVTQADVGSALANLKIPGVGSLSQSTICRFESLTLSHNNMIALKPILQAWLWEAEGAQREKMNKP [E69W]	-0.224 ± 0.056
RELEAFAERFKQRRIKLGVTQADVGSALANLKIPGVGSLSQSTIFRFESLTLSHNNMIALKPILQAWLEEAEGAQREKMNKP [C45F]	-0.108 ± 0.097
RELEAFAERFKQRRIKLGVTQADVGSALANLKIPGVGSLSQSTIHRFESLTLSHNNMIALKPILQAWLEEAEGAQREKMNKP [C45H]	0.089 ± 0.12
RELEAFAERFKQRRIKLGVTQADVGSALANLKIPGVGSLSQSTIGRFESLTLSHNNMIALKPILQAWLEEAEGAQREKMNKP [C45G]	-0.037 ± 0.031
RELEAFAERFKQRAIKLGVTQADVGSALANLKIPGVGSLSQSTICRFESLTLSHNNMIALKPILQAWLEEAEGAQREKMNKP [R14A]	-0.919 ± 0.071
RELEAFAERFKQRDIKLGVTQADVGSALANLKIPGVGSLSQSTICRFESLTLSHNNMIALKPILQAWLEEAEGAQREKMNKP [R14D]	-0.952 ± 0.18
RELEAFAERFKQRRIKLGVTQADVGSALANLKIPGVGSLSQMTICRFESLTLSHNNMIALKPILQAWLEEAEGAQREKMNKP [S42M]	-0.042 ± 0.073
RELEAFAERFKQRRIKLGVTQADVGSALANLKIPGVGSLSQQTICRFESLTLSHNNMIALKPILQAWLEEAEGAQREKMNKP [S42Q]	-0.113 ± 0.065
RELGAFAERFKQRRIKLGVTQADVGSALANLKIPGVGSLSQSTICRFESLTLSHNNMIALKPILQAWLEEAEGAQREKMNKP [E4G]	-0.166 ± 0.034
RELRAFAERFKQRRIKLGVTQADVGSALANLKIPGVGSLSQSTICRFESLTLSHNNMIALKPILQAWLEEAEGAQREKMNKP [E4R]	-0.065 ± 0.034
AELEAFAERFKQRRIKLGVTQADVGSALANLKIPGVGSLSQSTICRFESLTLSHNNMIALKPILQAWLEEAEGAQREKMNKP [R1A]	-0.132 ± 0.042

Variant	abundance fitness
RELEAFAERMKQRRIKLGVTQADVGSALANLKIPGVGSLSQSTICRFESLTLSHNNMIALKPILQAWLEEAEGAQREKMNKP [F10M]	-0.56 ± 0.044
RELEAFAERFKQRRIKLGVTQADVGSALANLKIPGVGSLSQSTICRFESLTTSHNNMIALKPILQAWLEEAEGAQREKMNKP [L52T]	-0.472 ± 0.064
RELEAFAERFKQRRIKLGVTQADVGSALANLKIPGVGALSQSTICRFESLTLSHNNMIALKPILQAWLEEAEGAQREKMNKP [S38A]	-0.18 ± 0.27
RELEAFAERFKQRRIKLGVTQADVGSALANLKIPGVGSLSQSTICRFESLTLSHNNMIALKPILQAWLEEAEKAQREKMNKP [G73K]	-0.046 ± 0.073
RELENFAERFKQRRIKLGVTQADVGSALANLKIPGVGSLSQSTICRFESLTLSHNNMIALKPILQAWLEEAEGAQREKMNKP [A5N]	0.106 ± 0.16
RELEAFAERFKQRRIKLGVTQADVGSALANLKIPGVGSLSQSTICRFERLTLSHNNMIALKPILQAWLEEAEGAQREKMNKP [S49R]	-0.073 ± 0.029
RELEAFAERFKQRRIKTGVTQADVGSALANLKIPGVGSLSQSTICRFESLTLSHNNMIALKPILQAWLEEAEGAQREKMNKP [L17T]	-0.779 ± 0.058
RELEAFAERFKQRRIKGGVTQADVGSALANLKIPGVGSLSQSTICRFESLTLSHNNMIALKPILQAWLEEAEGAQREKMNKP [L17G]	-0.802 ± 0.082
RELEAFAERFKQRRIKLGVTQADVGSALANLKIPGVGSLSQSTICRFESLTLSHNNMIALKPMLQAWLEEAEGAQREKMNKP [I63M]	-0.168 ± 0.078
RELEAFAERFKQRRIKLGVTQADVGSALANLKIPGVGSLSQSTICRFESLTLSHNNMIALKPELQAWLEEAEGAQREKMNKP [I63E]	-0.295 ± 0.08
RELEAFAERFKQRRIKLGVTQADVGSALANLKEPGVGSLSQSTICRFESLTLSHNNMIALKPILQAWLEEAEGAQREKMNKP [I33E]	-0.22 ± 0.033
RELEAFAERFKQRRIKLGVTQADVGNALANLKIPGVGSLSQSTICRFESLTLSHNNMIALKPILQAWLEEAEGAQREKMNKP [S26N]	0.285 ± 0.2
RELEAFMERFKQRRIKLGVTQADVGSALANLKIPGVGSLSQSTICRFESLTLSHNNMIALKPILQAWLEEAEGAQREKMNKP [A7M]	-0.395 ± 0.042
RELEAFAERFKQRRIKLGVTQADVGSALANLKIPGVGSLSQSTICRFESLTLSHNNMIALKPILQAWLEEAEGAQREKMNKW [P82W]	-0.116 ± 0.14
RELEAFAERFKQRRIKLGVTQADVGSALANLKIYGVGSLSQSTICRFESLTLSHNNMIALKPILQAWLEEAEGAQREKMNKP [P34Y]	-0.387 ± 0.082
RELEAFAERFKQRRIKLGVTQADVGSALANLKIQGVGSLSQSTICRFESLTLSHNNMIALKPILQAWLEEAEGAQREKMNKP [P34Q]	-0.027 ± 0.039
RELEAFAERFKQRRIKLGVTQADVGSALANLKIPGVGSLSQSTICRFESLTLSHNNMIALKPILQAWLEEAEGAQREKFNKP [M79F]	0.024 ± 0.04
